The target of assay [1] is membrane-bound IL6R on human cells (U266, XG-1, TF-1) (human) (UniProt P08887). Kind of assay: cell-based or functional assay.
The target in assay [2] is T1, human soluble IL6-R (human, UniProt P08887 20-358).
T1 chain: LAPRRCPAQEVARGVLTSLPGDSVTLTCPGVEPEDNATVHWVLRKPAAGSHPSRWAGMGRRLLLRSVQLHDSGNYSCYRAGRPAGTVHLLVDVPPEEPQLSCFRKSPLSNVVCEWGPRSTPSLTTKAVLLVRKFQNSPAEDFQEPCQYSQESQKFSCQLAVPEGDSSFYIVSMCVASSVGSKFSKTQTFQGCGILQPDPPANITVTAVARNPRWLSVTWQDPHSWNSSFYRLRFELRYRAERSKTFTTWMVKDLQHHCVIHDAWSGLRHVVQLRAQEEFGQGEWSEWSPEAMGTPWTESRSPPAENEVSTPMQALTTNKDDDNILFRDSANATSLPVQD
Kind of assay: Alphascreen inhibition of IL6/IL6-R interaction. In general terms: Alpha assays give light when donor and acceptor beads are brought close together.

Assay [3] concerns the target T1, human soluble IL6-R. Kind of assay: Alphascreen inhibition of IL6/IL6-R interaction.
Assay [4] deals with T2, soluble IL6-R in cynomolgus plasma (cynomolgus monkey, UniProt A0A2K5WN54 60-386).
T2 chain: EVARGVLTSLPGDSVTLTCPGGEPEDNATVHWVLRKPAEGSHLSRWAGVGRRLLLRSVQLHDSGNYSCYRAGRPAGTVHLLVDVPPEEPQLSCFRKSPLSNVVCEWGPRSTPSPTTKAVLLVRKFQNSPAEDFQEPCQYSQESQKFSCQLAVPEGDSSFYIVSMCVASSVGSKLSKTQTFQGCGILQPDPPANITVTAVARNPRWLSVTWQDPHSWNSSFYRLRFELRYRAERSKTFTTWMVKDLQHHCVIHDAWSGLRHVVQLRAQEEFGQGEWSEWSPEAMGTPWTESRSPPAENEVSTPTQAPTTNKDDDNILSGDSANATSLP
Kind of assay: ELISA inhibition of IL-6 binding to plasma sIL6R; cyno plasma, 50 ng/mL IL-6. For orientation: An ELISA detects its analyte on a solid surface through an enzyme-linked reagent.

Assay [5] concerns the target T1, human soluble IL6-R. Kind of assay: Alphascreen inhibition of IL6/IL6-R interaction; printed LOGEC50 -9.833.
The target in assay [6] is T1, human soluble IL6-R. As to the kind of experiment: Alphascreen inhibition of IL6/IL6-R interaction.
The target of assay [7] is T1, human soluble IL6-R. As to the kind of experiment: Alphascreen inhibition of IL6/IL6-R interaction.

For the molecule MAb BR-6 (antibody), in assay [1], the IC50 (+1% HSA), TF-1 proliferation assay, 200 pg/ml IL-6 amounted to 0.088; the IC50 (nM), XG-1 cell based assay is 0.064 nM; the IC50 (w/o HSA), TF-1 proliferation assay, 200 pg/ml IL-6 was determined as 0.042.

For MAb BN-12 (antibody), the IC50 (nM), XG-1 cell based assay in assay [1] was 0.272 nM.

B1: IL6R03 (VHH)
VHH: EVQLVESGGGLVQAGGSLRLSCAASGSIFKVNAMGWYRQAPGKQRELVAGIISGGSTNYADSVKGRLTISRDNAKNTVYLQMNSLKPEDTAVYYCSFVTTNSDYDLGRDYWGQGTQVTVSS
As for B1, the 50% effective concentration (EC50) (in general, the concentration giving half of the maximal effect) worked out at 0.187 nM in assay [2], 0.105 nM in assay [3] and 5.88 nM in assay [4].

B2: IL6R64 (VHH)
VHH: EVQLVESGGGLVQPGGSLRLSCAASGSIFKVNAMGWYRQAPGKGRELVAGIISGGSTNYADSVKGRLTISRDNAKNTVYLQMNSLRPEDTAVYYCAFVTTNSDYDLGRDYWGQGTLVTVSS
Take B2: the response in assay [2] was half-maximal at 0.108 nM (EC50).

B3: IL6R62 (VHH)
VHH: EVQLVESGGGLVQPGGSLRLSCAASGSIFKVNAMGWYRQAPGKGRELVAGIISGGSTNYADSVKGRFTISRDNAKNTVYLQMNSLRPEDTAVYYCSFVTTNSDYDLGRDYWGQGTLVTVSS
In assay [2], B3 displayed a concentration for a half-maximal effect (EC50) of 0.28 nM.

B4: IL6R61 (VHH)
VHH: EVQLVESGGGLVQPGGSLRLSCAASGSIFKVNAMGWYRQAPGKGRELVAGIISGGSTNYADSVKGRLTISRDNAKNTVYLQMNSLRPEDTAVYYCSFVTTNSDYDLGRDYWGQGTLVTVSS
For B4, in assay [2], a half-maximal effect (EC50) was put at 0.336 nM.

B5: IL6R65 (VHH)
VHH: EVQLVESGGGLVQPGGSLRLSCAASGSIFKVNAMGWYRQAPGKGRELVAGIISGGSTNYADSVKGRFTISRDNAKNTLYLQMNSLRPEDTAVYYCAFVTTNSDYDLGRDYWGQGTLVTVSS
Take B5: the results for the EC50 in assay [5] and in assay [4] were 0.105 nM and 4.91 nM, respectively.

B6: IL6R63 (VHH)
VHH: EVQLVESGGGLVQPGGSLRLSCAASGSIFKVNAMGWYRQAPGKGRELVAGIISGGSTNYADSVKGRLTISRDNAKNTLYLQMNSLRPEDTAVYYCSFVTTNSDYDLGRDYWGQGTLVTVSS
As to B6, the response in assay [2] was half-maximal at 0.65 nM (EC50).

B7: IL6R84 (VHH)
VHH: EVQLVESGGGLVQPGGSLRLSCAASGFTFDDYGMSWVRQAPGKGLEWVSAISWNGNNTYYTESMKGRFTISRDNAKNTLYLQMNSLRPEDTAVYYCVKGSTAIVGVPPTYPDEYDYWGQGTLVTVSS
B7 displayed an EC50 in assay [6] of 0.465 nM.

B8: IL6R83 (VHH)
VHH: EVQLVESGGGLVQPGGSLRLSCAASGFTFDDYGMSWVRQAPGRATEWVSAISWNGNNTYYTESMKGRFTISRDNAKNTLYLQMNSLRPEDTAVYYCVKGSTAIVGVPPTYPDEYDYWGQGTLVTVSS
Regarding B8, the concentration for a half-maximal effect (EC50) in assay [6] came out at 0.0779 nM.

B9: IL6R88 (VHH)
VHH: EVQLVESGGGLVQPGGSLRLSCAASGFTFDDYGMSWVRQAPGKGTEWVSAISWNGNNTYYTESMKGRFTISRDNAKNTLYLQMNSLRPEDTAVYYCVKGSTAIVGVPPTYPDEYDYWGQGTLVTVSS
B9: the EC50 came to 0.0727 nM in assay [3] and 23.3 nM in assay [4].

B10: IL6R81 (VHH)
VHH: EVQLVESGGGLVQPGGSLRLSCAASGFTFDDYGMSWVRQAPGRATEWVSAISWNGNNTYYTESMKGRFTISRDNAKNTVYLQMNSLRPEDTAVYYCVKGSTAIVGVPPTYPDEYDYWGQGTLVTVSS
The molecule B10 registered an EC50 in assay [6] of 0.0747 nM. In other words, the picomolar range.

B11: IL6R82 (VHH)
VHH: EVQLVESGGGLVQPGGSLRLSCAASGFTFDDYGMSWVRQAPGKGLEWVSAISWNGNNTYYTESMKGRFTISRDNAKNTVYLQMNSLRPEDTAVYYCVKGSTAIVGVPPTYPDEYDYWGQGTLVTVSS
Consider B11, for which it took 0.476 nM to reach a half-maximal effect in assay [6] (EC50).

B12: IL6R13 (VHH)
VHH: EVQLVESGGGLVQPGGSLRLSCAASGFTFDDYGMSWVRQAPGRATEWVSAISWNGNNTYYTESMKGRFTISRDNAKNTVYLQMNSLKPEDTAVYYCVKGSTAIVGVPPTYPDEYDYWGQGTQVTVSS
Take B12: the figures for the EC50 in assay [6], in assay [3] and in assay [4] were 0.0644 nM, 0.0505 nM and 11.7 nM, respectively.

B13: IL6R04 (VHH)
VHH: EVQLVESGGGLVQAGGSLRLSCAASGFTFDDYDIGWFRQAPGKEREGVSGISSSDGNTYYADSVKGRFTISSDNAKNTVYLQMNSLKPEDTAVYYCAAEPPDSSWYLDGSPEFFKYWGQGTQVTVSS
Turning to B13, the EC50 in assay [7] is 0.18 nM; in assay [3] it was 0.0568 nM; in assay [4] it was 36.9 nM.

B14: IL6R75 (VHH)
VHH: EVQLVESGGGLVQPGGSLRLSCAASGFTFSDYDIGWFRQAPGKGREGVSGISSSDGNTYYADSVKGRFTISRDNAKNTLYLQMNSLRPEDTAVYYCAAEPPDSSWYLDGSPEFFKYWGQGTLVTVSS
In assay [3], B14 showed an EC50 of 0.0432 nM.

B15: IL6R73 (VHH)
VHH: EVQLVESGGGLVQPGGSLRLSCAASGFTFDDYDIGWFRQAPGKGREGVSGISSSDGNTYYADSVKGRFTISRDNAKNTVYLQMNSLRPEDTAVYYCAAEPPDSSWYLDGSPEFFKYWGQGTLVTVSS
In assay [7], B15 showed a half-maximal effective concentration (EC50) of 0.0916 nM.

B16: IL6R71 (VHH)
VHH: EVQLVESGGGLVQPGGSLRLSCAASGFTFDDYDIGWFRQAPGKGREGVSGISSSDGNTYYADSVKGRFTISSDNAKNTVYLQMNSLRPEDTAVYYCAAEPPDSSWYLDGSPEFFKYWGQGTLVTVSS
Regarding B16, a half-maximal response in assay [7] (EC50) required 0.153 nM.

B17: IL6R74 (VHH)
VHH: EVQLVESGGGLVQPGGSLRLSCAASGFTFDDYDIGWFRQAPGKGREGVSGISSSDGNTYYADSVKGRFTISSDNAKNTLYLQMNSLRPEDTAVYYCAAEPPDSSWYLDGSPEFFKYWGQGTLVTVSS
Molecule B17 had a 50% effective concentration (EC50) in assay [7] of 0.133 nM.

B18: IL6R72 (VHH)
VHH: EVQLVESGGGLVQPGGSLRLSCAASGFTFSDYDIGWFRQAPGKGREGVSGISSSDGNTYYADSVKGRFTISSDNAKNTVYLQMNSLRPEDTAVYYCAAEPPDSSWYLDGSPEFFKYWGQGTLVTVSS
In assay [7], B18 yielded an EC50 of 0.16 nM.

These data come from US20180016342A1 (published 2018).
